Numbered stars: 1 amine (or outer) side, 2 acyl side, 3 side chain; on linkers, the order of the positions; unused ones are H or OH. Bridge positions count the residues as written; N and C are the ends. Side chains are listed from the residue outwards. Ends that are not written are not given here. * marks the point of attachment. C20 diacid = O=C(O)CCCCCCCCCCCCCCCCCCC(=O)*; γGlu = O=C(O)[C@H](CCC(=O)[*:2])N[*:1]; AEEA = NCCOCCOCC(=O)O
T1: human calcitonin receptor (human, UniProt P30988 25-474)
T1 construct: whole, on cells; Assayed as cell membranes of BHK tk'ts 13 cells stably transfected with the human calcitonin receptor (Assay VII); also called hCTR; hCT
T1 sequence (looked up): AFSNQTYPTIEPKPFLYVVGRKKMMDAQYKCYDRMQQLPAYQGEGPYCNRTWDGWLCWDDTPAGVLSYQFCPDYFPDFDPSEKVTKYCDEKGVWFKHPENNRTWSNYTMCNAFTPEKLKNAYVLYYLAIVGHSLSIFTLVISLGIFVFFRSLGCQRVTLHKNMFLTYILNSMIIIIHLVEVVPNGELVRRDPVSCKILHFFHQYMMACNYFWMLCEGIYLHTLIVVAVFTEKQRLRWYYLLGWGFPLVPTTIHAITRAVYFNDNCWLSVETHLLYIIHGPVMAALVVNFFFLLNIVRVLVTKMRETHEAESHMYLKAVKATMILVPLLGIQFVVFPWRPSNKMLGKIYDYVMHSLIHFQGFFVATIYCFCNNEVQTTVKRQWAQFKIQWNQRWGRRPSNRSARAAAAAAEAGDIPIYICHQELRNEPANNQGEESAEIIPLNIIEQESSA


Columns and labels:
[1] = target: T1, human calcitonin receptor; assay: IC50 at hCTR divided by IC50 at hAmylin-R (SPA competition assays V and VII)
In short: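 Membranes (35 ng/μL final) + SPA beads, 50 mM Hepes pH 7.4 buffer with 1 mM CaCl2, 5 mM MgCl₂, 0.1% OA, 0.02% Tween20; 120 min, 25° C, shaking; centrifuged, counted; IC₅₀ by one-site binding competition.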

[2] = target: T1, human calcitonin receptor; assay: SPA competition vs 125I-calcitonin, membranes of BHK cells with human calcitonin receptor (Assay VII)
In short: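 BHK hCTR membranes 35 ng/μL + SPA beads 0.05 mg/well; buffer 50 mM Hepes pH 7.4, 1 mM CaCl2, 5 mM MgCl₂, 0.1% OA, 0.02% Tween20. 120 min, 25° C., shaking. Scintillation count; IC50 by one-site binding competition.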

Ratio hCT/hAmylin binding [1] | IC50 [2] [nM] | Binder
28 | 32.5 | K([γGlu-γGlu-C20 diacid])CNTATCATQRLAEFLRHSSPNFGAIPSSTNVGSRTY-NH2 (disulfide 2-7; N-terminus assumed; SMILES CC[C@H](C)[C@H](NC(=O)[C@H](C)NC(=O)CNC(=O)[C@H](Cc1ccccc1)NC(=O)[C@H](CC(N)=O)NC(=O)[C@@H]1CCCN1C(=O)[C@H](CO)NC(=O)[C@H](CO)NC(=O)[C@H](Cc1c[nH]cn1)NC(=O)[C@H](CCCNC(=N)N)NC(=O)[C@H](CC(C)C)NC(=O)[C@H](Cc1ccccc1)NC(=O)[C@H](CCC(=O)O)NC(=O)[C@H](C)NC(=O)[C@H](CC(C)C)NC(=O)[C@H](CCCNC(=N)N)NC(=O)[C@H](CCC(N)=O)NC(=O)[C@@H](NC(=O)[C@H](C)NC(=O)[C@@H]1CSSC[C@H](NC(=O)[C@@H](N)CCCCNC(=O)CC[C@H](NC(=O)CC[C@H](NC(=O)CCCCCCCCCCCCCCCCCCC(=O)O)C(=O)O)C(=O)O)C(=O)N[C@@H](CC(N)=O)C(=O)N[C@@H]([C@@H](C)O)C(=O)N[C@@H](C)C(=O)N[C@@H]([C@@H](C)O)C(=O)N1)[C@@H](C)O)C(=O)N1CCC[C@H]1C(=O)N[C@@H](CO)C(=O)N[C@@H](CO)C(=O)N[C@H](C(=O)N[C@@H](CC(N)=O)C(=O)N[C@H](C(=O)NCC(=O)N[C@@H](CO)C(=O)N[C@@H](CCCNC(=N)N)C(=O)N[C@H](C(=O)N[C@@H](Cc1ccc(O)cc1)C(N)=O)[C@@H](C)O)C(C)C)[C@@H](C)O, also called compound 89)
4.3 | 5.14 | KCNTATCATQRLADFLRHSSK([γGlu-γGlu-C20 diacid])NFGAIPSSTNVGSDTY-NH2 (disulfide 2-7; N-terminus assumed; SMILES CC[C@H](C)[C@H](NC(=O)[C@H](C)NC(=O)CNC(=O)[C@H](Cc1ccccc1)NC(=O)[C@H](CC(N)=O)NC(=O)[C@H](CCCCNC(=O)CC[C@H](NC(=O)CC[C@H](NC(=O)CCCCCCCCCCCCCCCCCCC(=O)O)C(=O)O)C(=O)O)NC(=O)[C@H](CO)NC(=O)[C@H](CO)NC(=O)[C@H](Cc1c[nH]cn1)NC(=O)[C@H](CCCNC(=N)N)NC(=O)[C@H](CC(C)C)NC(=O)[C@H](Cc1ccccc1)NC(=O)[C@H](CC(=O)O)NC(=O)[C@H](C)NC(=O)[C@H](CC(C)C)NC(=O)[C@H](CCCNC(=N)N)NC(=O)[C@H](CCC(N)=O)NC(=O)[C@@H](NC(=O)[C@H](C)NC(=O)[C@@H]1CSSC[C@H](NC(=O)[C@@H](N)CCCCN)C(=O)N[C@@H](CC(N)=O)C(=O)N[C@@H]([C@@H](C)O)C(=O)N[C@@H](C)C(=O)N[C@@H]([C@@H](C)O)C(=O)N1)[C@@H](C)O)C(=O)N1CCC[C@H]1C(=O)N[C@@H](CO)C(=O)N[C@@H](CO)C(=O)N[C@H](C(=O)N[C@@H](CC(N)=O)C(=O)N[C@H](C(=O)NCC(=O)N[C@@H](CO)C(=O)N[C@@H](CC(=O)O)C(=O)N[C@H](C(=O)N[C@@H](Cc1ccc(O)cc1)C(N)=O)[C@@H](C)O)C(C)C)[C@@H](C)O, also called compound 59)
35.6 | 22.5 | K([γGlu-γGlu-C20 diacid])CNTATCATQRLAEFLRHSSPNFGAIPSSTNVGHNTY-NH2 (disulfide 2-7; N-terminus assumed; SMILES CC[C@H](C)[C@H](NC(=O)[C@H](C)NC(=O)CNC(=O)[C@H](Cc1ccccc1)NC(=O)[C@H](CC(N)=O)NC(=O)[C@@H]1CCCN1C(=O)[C@H](CO)NC(=O)[C@H](CO)NC(=O)[C@H](Cc1c[nH]cn1)NC(=O)[C@H](CCCNC(=N)N)NC(=O)[C@H](CC(C)C)NC(=O)[C@H](Cc1ccccc1)NC(=O)[C@H](CCC(=O)O)NC(=O)[C@H](C)NC(=O)[C@H](CC(C)C)NC(=O)[C@H](CCCNC(=N)N)NC(=O)[C@H](CCC(N)=O)NC(=O)[C@@H](NC(=O)[C@H](C)NC(=O)[C@@H]1CSSC[C@H](NC(=O)[C@@H](N)CCCCNC(=O)CC[C@H](NC(=O)CC[C@H](NC(=O)CCCCCCCCCCCCCCCCCCC(=O)O)C(=O)O)C(=O)O)C(=O)N[C@@H](CC(N)=O)C(=O)N[C@@H]([C@@H](C)O)C(=O)N[C@@H](C)C(=O)N[C@@H]([C@@H](C)O)C(=O)N1)[C@@H](C)O)C(=O)N1CCC[C@H]1C(=O)N[C@@H](CO)C(=O)N[C@@H](CO)C(=O)N[C@H](C(=O)N[C@@H](CC(N)=O)C(=O)N[C@H](C(=O)NCC(=O)N[C@@H](Cc1c[nH]cn1)C(=O)N[C@@H](CC(N)=O)C(=O)N[C@H](C(=O)N[C@@H](Cc1ccc(O)cc1)C(N)=O)[C@@H](C)O)C(C)C)[C@@H](C)O, also called compound 87)
60.8 | 10.3 | K([γGlu-C20 diacid])CNTATCATQRLAHFLRHSSPNFGAIPSSTNVGSNTY-NH2 (disulfide 2-7; N-terminus assumed; SMILES CC[C@H](C)[C@H](NC(=O)[C@H](C)NC(=O)CNC(=O)[C@H](Cc1ccccc1)NC(=O)[C@H](CC(N)=O)NC(=O)[C@@H]1CCCN1C(=O)[C@H](CO)NC(=O)[C@H](CO)NC(=O)[C@H](Cc1c[nH]cn1)NC(=O)[C@H](CCCNC(=N)N)NC(=O)[C@H](CC(C)C)NC(=O)[C@H](Cc1ccccc1)NC(=O)[C@H](Cc1c[nH]cn1)NC(=O)[C@H](C)NC(=O)[C@H](CC(C)C)NC(=O)[C@H](CCCNC(=N)N)NC(=O)[C@H](CCC(N)=O)NC(=O)[C@@H](NC(=O)[C@H](C)NC(=O)[C@@H]1CSSC[C@H](NC(=O)[C@@H](N)CCCCNC(=O)CC[C@H](NC(=O)CCCCCCCCCCCCCCCCCCC(=O)O)C(=O)O)C(=O)N[C@@H](CC(N)=O)C(=O)N[C@@H]([C@@H](C)O)C(=O)N[C@@H](C)C(=O)N[C@@H]([C@@H](C)O)C(=O)N1)[C@@H](C)O)C(=O)N1CCC[C@H]1C(=O)N[C@@H](CO)C(=O)N[C@@H](CO)C(=O)N[C@H](C(=O)N[C@@H](CC(N)=O)C(=O)N[C@H](C(=O)NCC(=O)N[C@@H](CO)C(=O)N[C@@H](CC(N)=O)C(=O)N[C@H](C(=O)N[C@@H](Cc1ccc(O)cc1)C(N)=O)[C@@H](C)O)C(C)C)[C@@H](C)O, also called compound 70) [N^ε1-[(4S)-4-carboxy-4-(19-carboxynonadecanoylamino)butanoyl]-[His14,Arg17,Pro21,Pro27]-h-amylin]
42.2 | 2.57 | K([AEEA-C20 diacid])CNTATCATQRLAHFLRHSSPNFGAIPSSTNVGSNTY-NH2 (disulfide 2-7; N-terminus assumed; SMILES CC[C@H](C)[C@H](NC(=O)[C@H](C)NC(=O)CNC(=O)[C@H](Cc1ccccc1)NC(=O)[C@H](CC(N)=O)NC(=O)[C@@H]1CCCN1C(=O)[C@H](CO)NC(=O)[C@H](CO)NC(=O)[C@H](Cc1c[nH]cn1)NC(=O)[C@H](CCCNC(=N)N)NC(=O)[C@H](CC(C)C)NC(=O)[C@H](Cc1ccccc1)NC(=O)[C@H](Cc1c[nH]cn1)NC(=O)[C@H](C)NC(=O)[C@H](CC(C)C)NC(=O)[C@H](CCCNC(=N)N)NC(=O)[C@H](CCC(N)=O)NC(=O)[C@@H](NC(=O)[C@H](C)NC(=O)[C@@H]1CSSC[C@H](NC(=O)[C@@H](N)CCCCNC(=O)COCCOCCNC(=O)CCCCCCCCCCCCCCCCCCC(=O)O)C(=O)N[C@@H](CC(N)=O)C(=O)N[C@@H]([C@@H](C)O)C(=O)N[C@@H](C)C(=O)N[C@@H]([C@@H](C)O)C(=O)N1)[C@@H](C)O)C(=O)N1CCC[C@H]1C(=O)N[C@@H](CO)C(=O)N[C@@H](CO)C(=O)N[C@H](C(=O)N[C@@H](CC(N)=O)C(=O)N[C@H](C(=O)NCC(=O)N[C@@H](CO)C(=O)N[C@@H](CC(N)=O)C(=O)N[C@H](C(=O)N[C@@H](Cc1ccc(O)cc1)C(N)=O)[C@@H](C)O)C(C)C)[C@@H](C)O, also called compound 90) [N^ε1-[2-[2-[2-(19-carboxynonadecanoylamino)ethoxy]ethoxy]acetyl]-[His14,Arg17,Pro21,Pro27]-h-amylin]
145 | 26 | K([γGlu-γGlu-C20 diacid])CNTATCATQRLAHFLRHSSPNFGAIPSSTNVGSNTY-NH2 (disulfide 2-7; N-terminus assumed; SMILES CC[C@H](C)[C@H](NC(=O)[C@H](C)NC(=O)CNC(=O)[C@H](Cc1ccccc1)NC(=O)[C@H](CC(N)=O)NC(=O)[C@@H]1CCCN1C(=O)[C@H](CO)NC(=O)[C@H](CO)NC(=O)[C@H](Cc1c[nH]cn1)NC(=O)[C@H](CCCNC(=N)N)NC(=O)[C@H](CC(C)C)NC(=O)[C@H](Cc1ccccc1)NC(=O)[C@H](Cc1c[nH]cn1)NC(=O)[C@H](C)NC(=O)[C@H](CC(C)C)NC(=O)[C@H](CCCNC(=N)N)NC(=O)[C@H](CCC(N)=O)NC(=O)[C@@H](NC(=O)[C@H](C)NC(=O)[C@@H]1CSSC[C@H](NC(=O)[C@@H](N)CCCCNC(=O)CC[C@H](NC(=O)CC[C@H](NC(=O)CCCCCCCCCCCCCCCCCCC(=O)O)C(=O)O)C(=O)O)C(=O)N[C@@H](CC(N)=O)C(=O)N[C@@H]([C@@H](C)O)C(=O)N[C@@H](C)C(=O)N[C@@H]([C@@H](C)O)C(=O)N1)[C@@H](C)O)C(=O)N1CCC[C@H]1C(=O)N[C@@H](CO)C(=O)N[C@@H](CO)C(=O)N[C@H](C(=O)N[C@@H](CC(N)=O)C(=O)N[C@H](C(=O)NCC(=O)N[C@@H](CO)C(=O)N[C@@H](CC(N)=O)C(=O)N[C@H](C(=O)N[C@@H](Cc1ccc(O)cc1)C(N)=O)[C@@H](C)O)C(C)C)[C@@H](C)O, also called compound 92)
